Experimental data published in article PMC11602132.

Molecular target: Non-structural protein 15 (Nsp15) from SARS-CoV-2 (SARS-CoV-2)
Experiment: SEC

With “Non-structural protein 15 (Nsp15) from SARS-CoV-2 (enzyme)” the stoichiometry N was 6.
